These results are taken from article PMC6038053, “Structural and Functional Insights Into Lysostaphin–Substrate Interaction” (Frontiers in Molecular Biosciences, 2018).

Data set [1] has as its target T1, lysostaphin CWT domain (Staphylococcus simulans, UniProt P10547).
T1 construct: DNA encoding the CWT domain (residues 402-493) was amplified; GST (from the pGEX-2T vector); made in house; host or cells: E. coli BL21 (DE3)
It is filed as binding. Here is the method:
The pentaglycine binding site on the CWT domain was determined by comparing the ^1H, ^15N, and ^1H, ^13C HSQC spectra of full-length lysostaphin and CWT domain acquired in the presence and absence of a large amount, ~170 molar excess, of KGGGGG and GGGGGK hexapeptides (Sigma-Aldrich). […] CSPs, calculated as Δδ = (ΔδH^2+(0.154 × ΔδN)^2)^1/2, were plotted as a function of the molar ratio of titrated ligand to CWT domain. Dissociation constants for individual residues were obtained by nonlinear least squares fitting, as implemented in the program xcrvfit (www.bionmr.ualberta.ca/bds/software/xcrvfit). Site-specific dissociation constants were calculated as averages of dissociation constants of individual residues within the site. In all binding site studies protein to zinc concentration ratio was 1:1.

For data set [2] the following is noted: effect of presence of lysine, relative to pentaglycine.
A short description of data set [3]: Pentaglycine cleavage by lysostaphin monitored by 1H NMR. The class given is biochemical. The note with it: for Relative activity: PBS pH 7.2, 21 h, 37 °C. Here is the method: Pentaglycine cleavage by lysostaphin was monitored by ^1H NMR as described previously (Raulinaitis et al., [2017a]). Reactions took place in phosphate buffer saline (PBS), pH 7.2, with >90% D2O by volume as a solvent and final volumes were 600 μL. Initial pentaglycine (Sigma-Aldrich) and lysostaphin concentrations were 1 mM and 2.25 μM, respectively. Metal ions (ZnCl2, CoCl2, CuCl2, and MnCl2) were added as needed. Residual activity of lysostaphin “apo” form was taken into account in activity calculations. Measurements were carried out by using a Bruker Avance III 600 MHz spectrometer, equipped with a QCI ^1H/^13C/^15N/^31P cryoprobe and a SampleJet automated sample changer. The preheater of the sample changer was used for sample incubation when product formation was measured as a time series with 3-h intervals for 48 h. Single time-point samples were incubated in an incubator for 21 h and reactions were quenched by heating at 90°C for 15 min before proton spectra acquisitions at 37°C. The data were processed with Bruker TopSpin 3.5 software.
Proton NMR allows for direct and real-time reaction monitoring devoid of intricacies of cellular suspension (Raulinaitis et al., [2017a]). Scission of pentaglycine by lysostaphin was monitored for 48 h by ^1H NMR and under conditions of this study its catalytic rate appeared to be limited only by saturation with the substrate (Supplementary Figure 4). The substrate turnover rate by the enzyme in the first 3 h of the reaction is estimated to be in the order of 0.006 s^−1.
Figure 4 Lysostaphin activity dependence on zinc, cobalt, copper and manganese cofactors. Lysostaphin was incubated with pentaglycine (2.25 μM and 1 mM concentrations, respectively) in PBS buffer, pH 7.2, for 21 h at 37°C. Total cofactor ratios to protein were 1:1 and 3:1, EDTA excess was 70-fold. […] Activity was adjusted to one zinc-bound lysostaphin as 100% reference point. Bars represent standard error of the mean (S.E.M) of at least three independent measurements. TEXT PRINTED IN THE PICTURE: 1 Zn: Relative activity, %: 100.0 | 3 Zn: Relative activity, %: 79.8 | 1 Cu: Relative activity, %: 96.4 | 3 Cu: Relative activity, %: 183.3 | 1 Mn: Relative activity, %: 38.8 | 3 Mn: Relative activity, %: 40.3 | 1 Co: Relative activity, %: 79.1 | 100 EDTA: Relative activity, %: 12.8

The subject of data set [4] is CWT binding to S. aureus cells. Also on record: method as in Gründling and Schneewind, 2006. To be noted: excess of pentaglycine; ref Gründling and Schneewind, 2006; cited from earlier work.
Data set [5] concerns the target T2, lysostaphin cell wall targeting (CWT) domain (residues 402-493) (Staphylococcus simulans, UniProt P10547 402-493).
T2 construct: also called targeting domain; SH3b domain; source: E. coli BL21 (DE3), purified (Glutathione Sepharose, thrombin release, gel filtration on Superdex 75)
The experiment in a line: NMR titration; 1H,15N and 1H,13C HSQC spectra of the CWT domain with and without ~170 molar excess of hexapeptide; chemical shift perturbations; protein to zinc 1:1. The note with it: both partners purified.

The mark [6] stands for this setting: ~80 molar excess of the peptide, data not shown.

“Also recorded” adds a separate entry of the source. Where two headings read alike, the source gives them in different places. Non-standard residues stand in square brackets, D forms with d. Residues, ends and D or L forms follow the SMILES beside them.

T1 sequence (P10547 402-493): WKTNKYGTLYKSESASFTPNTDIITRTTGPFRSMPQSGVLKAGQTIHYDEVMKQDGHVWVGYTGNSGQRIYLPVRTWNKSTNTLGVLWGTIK
T2 sequence (P10547 402-493): as above

Consider `C[C@H](N)C(=O)N[C@H](CCC(=O)O)C(=O)N[C@@H](CCCCN)C(=O)NCC(=O)NCC(=O)NCC(=O)NCC(=O)NCC(=O)N[C@@H](C)C(=O)N[C@H](CCC(=O)O)C(=O)N[C@@H](CCCCN)C(=O)N[C@H](C)C(=O)O` (H-A[dE]KGGGGGA[dE]K[dA]-OH; N-terminus and C-terminus assumed), for which the CSPs entry in data set [1] (~24 molar excess) is on record as “significant CSPs”.

As to GGGGGK [G5K], the “Largest peak shifts, Δδ (CSP)” value in data set [1] (residues N405, Y411, G430-F432, V452, M453, Y472, ~170 molar excess) is ≥ 0.10 ppm. The solubility result in data set [2] is recorded as “significantly enhanced the solubility”.

Consider KGGGGG [KG5], for which the solubility entry in data set [2] is listed as “significantly enhanced the solubility”.

“Lysostaphin: S. simulans zinc-dependent endopeptidase with N-terminal catalytic domain and C-terminal cell wall targeting domain”: the Relative activity is 79.1% in data set [3] (1 Co (1:1 cofactor to protein), adjusted to one zinc-bound lysostaphin = 100%, 2.25 μM lysostaphin, 1 mM pentaglycine, n ≥ 3); 96.4% in data set [3] (1 Cu (1:1 cofactor to protein), adjusted to one zinc-bound lysostaphin = 100%, 2.25 μM lysostaphin, 1 mM pentaglycine, n ≥ 3); 38.8% in data set [3] (1 Mn (1:1 cofactor to protein), adjusted to one zinc-bound lysostaphin = 100%, 2.25 μM lysostaphin, 1 mM pentaglycine, n ≥ 3); 100.0% in data set [3] (1 Zn (1:1 cofactor to protein), reference point 100%, 2.25 μM lysostaphin, 1 mM pentaglycine, at least three independent measurements); 183.3% in data set [3] (3 Cu (3:1 cofactor to protein), adjusted to one zinc-bound lysostaphin = 100%, 2.25 μM lysostaphin, 1 mM pentaglycine, n ≥ 3); 40.3% in data set [3] (3 Mn (3:1 cofactor to protein), adjusted to one zinc-bound lysostaphin = 100%, 2.25 μM lysostaphin, 1 mM pentaglycine, n ≥ 3). Further, the Relative activity in data set [3] (3 Zn (3:1 cofactor to protein), adjusted to one zinc-bound lysostaphin = 100%, 2.25 μM lysostaphin, 1 mM pentaglycine, n ≥ 3) came to 79.8%; in data set [3] (100 EDTA (EDTA excess, residual activity), adjusted to one zinc-bound lysostaphin = 100%, 2.25 μM lysostaphin, 1 mM pentaglycine, n ≥ 3), 12.8%. The “change of catalytic activity” value in data set [3] (Cu^2+ in excess) is given as “activity increases”; in data set [3] (excess of zinc (second zinc bound by catalytic histidines H329 and H360)), “reduces lysostaphin pentaglycine cleaving activity; also recorded: partial inhibition”. The “cofactor suitability for catalytic activity” value in data set [3] (Mn^2+) is given as “weak cofactor”; in data set [3] (metal cations Zn^2+, Co^2+, and Cu^2+), “suitable cofactors”. Besides, the substrate turnover rate in data set [3] (first 3 h of the reaction, 1 mM pentaglycine, 2.25 μM lysostaphin, PBS pH 7.2, 37 °C, 1H NMR every 3 h for 48 h, estimated) was ~0.006 s⁻¹.

Take “N-acetylmuramyl-L-alanyl-D-isoglutamine hydrate [N-acetylmuramyl-L-A-D-γ-Q hydrate]”: in data set [1] (setting [6]), the CSPs entry is reported as “very small CSPs” and the “affinity of CWT domain” value is on record as “no significant affinity”.

Consider pentaglycine, for which, in data set [4], the “blocking of CWT binding to S. aureus cells” value is “cannot be blocked”. For the same molecule, the “affinity of targeting (CWT) domain in words” value in data set [1] (abstract / conclusions summary) is reported as “very low affinity; also recorded: extremely low affinity”.

B1: GGGGGK hexapeptide (peptide)
peptide: GGGGGK
notes: also called G5K; source: bought: Sigma-Aldrich
For orientation: Kd means the constant that tells how readily two partners part at equilibrium. Turning to B1, the Kd in data set [5] was > 10 mM.
